According to the supplement of paper PMC9233669:
Variants at the floor of the assay were thinned out.

What was measured:
[1] = tested on: biotinyl-Leu-oxazolone; experiment: self-aminoacylation, catalytic enhancement (BLO) (fold over background); higher = more active; k-Seq, kA / k0A0; sequences stand for … in GGGAAUGGAUCCACAUCUACGAAUUC…UUCACUGCAGACUUGACGAAGCUG
Procedure, shortened: (§1)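 Working in 50 μL HEPES/NaCl/KCl/MgCl2/CaCl2 buffer with 5% acetonitrile at pH 6.9–7.0, mutagenized RNA pools (0.43 μM; 21-nt variable region) were reacted with 2–1250 μM of each biotinyl-aminoacyl-oxazolone for 90 minutes at room temperature. Streptavidin capture followed, with quantification by triplicate qPCR and Illumina sequencing. Catalytic enhancement is reported as median kA over the uncatalyzed rate, the low-activity peak of a bimodal Gaussian fit to the data.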

[2] = tested on: biotinyl-Ile-oxazolone; experiment: self-aminoacylation, catalytic enhancement (BIO) (fold over background); higher = more active; k-Seq, kA / k0A0; sequences stand for … in GGGAAUGGAUCCACAUCUACGAAUUC…UUCACUGCAGACUUGACGAAGCUG
Procedure, shortened: as §1

[3] = tested on: biotinyl-Met-oxazolone; experiment: self-aminoacylation, catalytic enhancement (BMO) (fold over background); higher = more active; k-Seq, kA / k0A0; sequences stand for … in GGGAAUGGAUCCACAUCUACGAAUUC…UUCACUGCAGACUUGACGAAGCUG
Procedure, shortened: as §1

[4] = tested on: biotinyl-Phe-oxazolone; experiment: self-aminoacylation, catalytic enhancement (BFO) (fold over background); higher = more active; k-Seq, kA / k0A0; sequences stand for … in GGGAAUGGAUCCACAUCUACGAAUUC…UUCACUGCAGACUUGACGAAGCUG
Procedure, shortened: as §1

[5] = tested on: biotinyl-Val-oxazolone; experiment: self-aminoacylation, catalytic enhancement (BVO) (fold over background); higher = more active; k-Seq, kA / k0A0; sequences stand for … in GGGAAUGGAUCCACAUCUACGAAUUC…UUCACUGCAGACUUGACGAAGCUG
Procedure, shortened: as §1

[6] = tested on: biotinyl-Trp-oxazolone; experiment: self-aminoacylation, catalytic enhancement (BWO) (fold over background); higher = more active; k-Seq, kA / k0A0; sequences stand for … in GGGAAUGGAUCCACAUCUACGAAUUC…UUCACUGCAGACUUGACGAAGCUG
Procedure, shortened: as §1

Row | Sequence | self-aminoacylation [1] | self-aminoacylation [2] | self-aminoacylation [3] | self-aminoacylation [4] | self-aminoacylation [5] | self-aminoacylation [6]
1 | AUUACCCUGGUCAUCGCGUGG [Fam2.1 aminoacylation ribozyme variant] | 6.77 | 2.8 | 3.88 | 35.6 | 3.14 | 5.28
2 | AAGUUGGCUAAUAGUCGCACG [Fam3.1 aminoacylation ribozyme variant] | 1.81 | 1.35 | 1.61 | 2.62 | 1.63 | 2.11
3 | CGACACUUCAAGCAAUCGGUA [Fam1B.1 aminoacylation ribozyme variant] | 1.41 | 1.86 | 1.44 | 2.02 | 1.84 | 2.9
4 | AUUCACCUAGGUCGUCGGCUG [Fam2.2 aminoacylation ribozyme variant] | 2.55 | 1.62 | 2.16 | 4.94 | 1.97 | 1.63
5 | AAGUUUGCUUAAAGUCGCAAG [Fam3.1 aminoacylation ribozyme variant] | 0.896 | 0.972 | 0.754 | 1.07 | 0.897 | 1.1
6 | AGGUUCGCUAAUAGUCGCAAG [Fam3.1 aminoacylation ribozyme variant] | 3.26 | 2.82 | 2.81 | 12.3 | 2.34 | 4.12
7 | UAGUUUGCUAAUAGUCGCAGG [Fam3.1 aminoacylation ribozyme variant] | 1.31 | 1.72 | 1.2 | 2.23 | 1.34 | 2.22
8 | AUUACCCUGGUCAUCGAGCGG [Fam2.1 aminoacylation ribozyme variant] | 2.9 | 1.95 | 2.38 | 1.12 | 1.8 | 1.61
9 | AAAUUUGCUAAUAGUCGCAAC [Fam3.1 aminoacylation ribozyme variant] | 1.91 | 1.88 | 1.31 | 1.64 | 1.51 | 1.52
10 | AAGUUUCCUAAUAGUCGAAAG [Fam3.1 aminoacylation ribozyme variant] | 1.44 | 1.45 | 1.1 | 2.75 | 1.14 | 1.76
11 | CCACAAUUCAAGCAAUCGGAC [Fam1B.1 aminoacylation ribozyme variant] | 0.884 | 1.15 | 0.783 | 0.942 | 0.798 | 0.711
12 | CCACAAUUCGAGCAAUCGGUC [Fam1B.1 aminoacylation ribozyme variant] | 1.07 | 1.28 | 0.985 | 0.736 | 1.58 | 1.08
13 | CUACUUCAAAAAAUCCGUCUG [Fam1A.1 aminoacylation ribozyme variant] | 0.682 | 0.834 | 0.854 | 1.02 | 0.945 | 0.897
14 | AUUCACCUAAGUCGUCGGGUG [Fam2.2 aminoacylation ribozyme variant] | 2.55 | 1.88 | 2.18 | 10.1 | 1.87 | 2.02
15 | GCUCACUUCAAGCAAUCGGUC [Fam1B.1 aminoacylation ribozyme variant] | 1.77 | 1.69 | 1.58 | 16.7 | 1.67 | 10.9
16 | AGUCACCUGGGUCAUCGGGUG [Fam2.2 aminoacylation ribozyme variant] | 4.04 | 4.56 | 3.98 | 35.4 | 4.96 | 5.64
17 | CCACGCUUUAAGCAAUCGGUC [Fam1B.1 aminoacylation ribozyme variant] | 0.682 | 0.737 | 0.713 | 1.27 | 0.787 | 0.998
18 | AUUACCCAGGUCAUCAAGUGA [Fam2.1 aminoacylation ribozyme variant] | 1.97 | 1.47 | 1.97 | 3.35 | 1.59 | 2.63
19 | CUACUUCAAACAAUCGAUCAG [Fam1A.1 aminoacylation ribozyme variant] | 0.659 | 0.554 | 0.497 | 1.15 | 0.654 | 0.617
20 | AUUCACCCAGGUCAUCCGGUG [Fam2.2 aminoacylation ribozyme variant] | 12.7 | 6.38 | 8.64 | 90.7 | 6.29 | 8.51
21 | GGUACCCUGGUCAUCGAGUGA [Fam2.1 aminoacylation ribozyme variant] | 12.6 | 6.93 | 11.2 | 38.7 | 6.65 | 16.4
22 | UUUCGCCUAGGUCAUCGGGUG [Fam2.2 aminoacylation ribozyme variant] | 7.49 | 5.36 | 6.25 | 44.1 | 5.33 | 7.75
23 | AUUUACCUACGUCAUCGGGUG [Fam2.2 aminoacylation ribozyme variant] | 6.25 | 2.56 | 4.54 | 32.2 | 3.17 | 4.65
24 | AAGUUUGCUAAUAGUCCCAAC [Fam3.1 aminoacylation ribozyme variant] | 0.585 | 0.639 | 0.505 | 1.04 | 0.643 | 0.629
25 | AGGUUUGCUAAUAGCCGCAAG [Fam3.1 aminoacylation ribozyme variant] | 1.11 | 1.2 | 1.15 | 4.78 | 0.935 | 2.25
26 | AAGUUUGCUAAUAGUCGAUAG [Fam3.1 aminoacylation ribozyme variant] | 0.805 | 0.824 | 0.781 | 1.42 | 0.846 | 0.829

Row | Sequence | self-aminoacylation [1] | self-aminoacylation [2] | self-aminoacylation [3] | self-aminoacylation [4] | self-aminoacylation [5] | self-aminoacylation [6]
27 | CUACUUUAAACAAUCGGCCUG [Fam1A.1 aminoacylation ribozyme variant] | 0.974 | 1.2 | 1.24 | 0.942 | 1.03 | 2.02
28 | CCACGCUUCAGGCAAUCGGUC [Fam1B.1 aminoacylation ribozyme variant] | 1.39 | 1.22 | 1.35 | 1.41 | 1.77 | 1.35
29 | CCGCACUUCAAGCAAUGGGUC [Fam1B.1 aminoacylation ribozyme variant] | 1.04 | 0.918 | 0.802 | 1.13 | 1.21 | 1.08
30 | AUUCACCUAGCACAUCGGGUG [Fam2.2 aminoacylation ribozyme variant] | 3.31 | 2.09 | 2.38 | 11.3 | 2.12 | 2.03
31 | AUUCACCUAGGUCAUAAGGUG [Fam2.2 aminoacylation ribozyme variant] | 3.48 | 1.98 | 3.33 | 6.42 | 1.69 | 2.59
32 | AUUCCCCUAGGUCAUUGGGUG [Fam2.2 aminoacylation ribozyme variant] | 15.6 | 7.23 | 10.3 | 92.5 | 7.95 | 11.8
33 | AUUACCCUAGUCAUCGAGUUA [Fam2.1 aminoacylation ribozyme variant] | 0.9 | 0.922 | 0.978 | 1.05 | 1.17 | 0.53
34 | CUACUUAAAACAAUCGGUUUG [Fam1A.1 aminoacylation ribozyme variant] | 0.621 | 0.672 | 0.718 | 0.655 | 0.627 | 0.596
35 | CUACUUCAAACUAUCGAUCUG [Fam1A.1 aminoacylation ribozyme variant] | 0.596 | 0.736 | 0.57 | 0.945 | 0.728 | 0.369
36 | ACUCUCCUAGGUCAUCGGGUG [Fam2.2 aminoacylation ribozyme variant] | 10.2 | 5.49 | 8.52 | 49.4 | 5.61 | 8.31
37 | AUUACCCUGGUCACCCAGUGA [Fam2.1 aminoacylation ribozyme variant] | 6.87 | 4.12 | 7.54 | 46.1 | 3.6 | 8.27
38 | AUUCACUUAGGUCAUCGGAUG [Fam2.2 aminoacylation ribozyme variant] | 0.579 | 0.701 | 0.766 | 0.46 | 0.714 | 0.528
39 | CUACUUCAAAUCAUCGGUCUG [Fam1A.1 aminoacylation ribozyme variant] | 0.917 | 0.876 | 0.83 | 0.771 | 0.855 | 0.65
40 | CUACUUCAAACAUUCGGUGUG [Fam1A.1 aminoacylation ribozyme variant] | 1.73 | 1.4 | 1.82 | 8.08 | 1.51 | 1.39
41 | AAGUUUGCUAAUAGUCGCAGU [Fam3.1 aminoacylation ribozyme variant] | 1.66 | 1.33 | 1.91 | 8.27 | 1.34 | 3.14
42 | CGACACUUCCAGCAAUCGGUC [Fam1B.1 aminoacylation ribozyme variant] | 1.19 | 1.56 | 1.14 | 0.915 | 1.49 | 1.15
43 | AUUACCCUGGUCAUAGAGAGA [Fam2.1 aminoacylation ribozyme variant] | 0.798 | 0.947 | 0.983 | 0.605 | 0.717 | 0.77
44 | CUACUUCAAACAAUCGGUCAU [Fam1A.1 aminoacylation ribozyme variant] | 0.892 | 0.892 | 0.666 | 4.39 | 1.01 | 1.88
45 | AUUCCCCUGGUCGUCGAGUGA [Fam2.1 aminoacylation ribozyme variant] | 1.71 | 1.48 | 1.42 | 6.18 | 1.33 | 1.52
46 | AUUCGCCUAGGUCAGCGGGUG [Fam2.2 aminoacylation ribozyme variant] | 5.95 | 3.91 | 5.21 | 37.8 | 3.96 | 5.11
47 | AAUCACCUAGGUGAUCGGGUG [Fam2.2 aminoacylation ribozyme variant] | 4.84 | 4.6 | 5.43 | 27.7 | 4.03 | 5.05
48 | AAGUUUCCUAGUAGUCGCAAG [Fam3.1 aminoacylation ribozyme variant] | 1.06 | 1.12 | 1.2 | 1.27 | 1.44 | 0.668
49 | CCACACUUCAGUCAAUCGGUC [Fam1B.1 aminoacylation ribozyme variant] | 1.03 | 1.11 | 1.02 | 1.06 | 0.965 | 1.31
50 | AAGUUUGCUAAUUGUCGCUAG [Fam3.1 aminoacylation ribozyme variant] | 1.17 | 0.95 | 1 | 0.848 | 1.02 | 1.08
51 | CCCCACUUCAAGCAAUCGAUC [Fam1B.1 aminoacylation ribozyme variant] | 0.67 | 0.768 | 0.533 | 2.79 | 0.93 | 1.27
